Source: the supplement of paper PMC10567573

B1: MNAT1 (parent)
chain: LAPIHKLEEALYEYQPLQIETYGP
B2: ZNF24 (parent)
chain: THTKEQILELVVLEQFVAILPKEL

Variants of: B1
Assay: protein stability index of a GFP-peptide fusion (GPS, HEK-293T) (PSI 1-6); higher = more stable
Conditions: c terminus: a fixed tail appended
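Further: lentivirally expressed fusions sorted by FACS into six bins by GFP to DsRed ratio, PSI derived from sequencing read proportions per bin multiplied by bin number.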

Variant	protein stability index
G23Y	1.87
G23E	1.86
G23R	1.15
G23T	1.3
G23D	1.3
G23Q	2.02
G23V	2.79
G23F	1.92
G23N	1.85
G23S	2.1
G23M	2.17
G23C	1.44
G23L	2.56
G23A	2.16
Y14G	3.45
Y14W	2.28
Y14M	2.42
Y14H	3.32
Y14L	2.1
Y14P	2.94
P3Q	1.67
P3K	2.04
P3W	1.44
P3E	1.97
P3H	1.87
P3Y	2.18

Variant	protein stability index
P3R	2.1
P3D	1.46
P3C	1.53
P3N	1.32
P3A	2.23
P3T	2.32
P3S	2.12
E13R	1.8
E13H	2.7
E13Y	1.61
E13I	2.17
E13C	1.64
E13D	2.9
E13A	1.53
E13T	2.14
E13K	1.83
E13M	2.49
K6H	1.97
K6Y	2.1
K6M	1.44
K6R	1.8
K6N	2.27
K6L	2.29
K6A	1.97
K6S	2.24
K6C	1.64

Variant	protein stability index
H5N	2.21
H5G	1.96
H5Y	1.61
H5E	1.92
H5K	2.62
H5I	1.71
H5V	1.49
H5R	2.56
H5D	2.33
H5C	1.64
L11A	3.55
L11H	2.54
L11G	3.48
L11Y	2.42
L11I	2.3
L11R	2.77
L11M	2.34
L11V	2.9
L11D	3.71
L11K	3.38
L7H	3.55
L7C	2.69
L7A	3.44
L7D	4.04
L7M	3.05
L7I	2.15

Variant	protein stability index
L7Q	2.97
L7P	3.29
L7N	2.72
A10N	2.69
A10S	2.28
A10L	1.69
A10G	2.88
A10Y	2.35
A10F	2.45
A10W	1.8
A10E	3.04
A10M	1.45
P16D	2.86
P16M	1.85
P16E	2.67
P16C	2.06
P16T	1.96
P16R	2.02
P16G	2.35
P16I	2.79
P16Q	1.97
P16A	2.43
P16S	2.57
E8D	2.52
E8G	2.02
E8Q	2.05

Variant	protein stability index
E8P	2.19
E8V	1.53
E8A	1.55
E20P	2.59
E20Q	2.19
E20G	1.98
E20M	1.47
E20Y	2.74
E20S	1.71
E20D	1.95
E20K	3.27
E20R	1.79
A2K	1.92
A2W	2.44
A2N	2.23
A2Q	2.07
A2C	1.68
A2R	1.62
A2L	2.93
A2H	2.21
A2E	2.47
A2Y	1.9
A2F	3.4
Q18E	2.08
Q18C	2.21
Q18W	1.96

Variant	protein stability index
Q18S	1.86
Q18D	3.99
Q18A	1.84
Q18V	2.25
Q18G	1.51
Q18F	2.9
Q18M	1.85
L17E	3.63
L17W	1.95
L17C	2.51
L17G	3.12
L17D	3.96
L17Y	2.59
L17I	2.1
L17S	3.45
L17T	2.47
Y12I	2.64
Y12H	1.54
Y12A	1.27
Y12Q	1.88
Y12S	1.87
Y12F	1.19
Y12K	1.93
Y12W	2.39
Y12D	3.07
Y12T	2.24

Variant	protein stability index
T21W	3.09
T21A	2.6
T21Q	1.57
T21S	2.23
T21H	1.62
T21K	2.5
T21C	3.14
T21N	2.5
L1W	2.56
L1P	2.3
L1G	1.98
L1E	2.52
L1V	2.31
L1Y	2.12
L1R	2.5
L1S	2.62
L1M	1.87
I4N	2.35
I4A	2.95
I4K	2.17
I4G	3.06
I4R	2.75
I4T	2.15
I4D	2.78
I4P	2.55
I4F	1.88

Variant	protein stability index
I4L	2.04
I4H	2.63
I4Y	1.66
I4V	2.13
I19E	3.3
I19G	2.85
I19L	2.89
I19Q	3.62
I19H	2.85
I19R	3.1
I19M	2.37
I19K	2.99
I19Y	1.92
I19D	4.07
E9C	2.68
E9P	2.25
E9Q	1.91
E9H	2.15
E9L	3.09
E9S	1.71
E9W	2.08
E9A	2.48
E9K	2.26
Q15M	1.94
Q15T	2.2
Q15V	1.44

Variant	protein stability index
Q15R	2.03
Q15K	2.26
Y22N	2.74
Y22E	3.19
Y22T	2.64
Y22R	1.73
Y22P	2.88
Y22C	1.96
Y22W	2.1
Y22M	2.01
Y22L	2.63
P24A	2.14
P24I	2.04
P24D	1.95
P24H	1.58
P24W	1.99
P24T	1.87
P24G	1.82

Variants of: B2
Assay: as above
Conditions: c terminus: a fixed tail appended

Variant	protein stability index
T3G	4.09
T3S	3.88
T3H	2.23
T3Q	2.81
T3V	2
T3K	2.96
T3R	2.26
T3N	3.1
T3L	3.11
T3M	3.02
T3P	2.96
T3W	3.42
T3F	2.76
T3D	2.43
T3A	3.86
T3I	2.65
T3E	3.23
T3C	1.53
T3Y	3.59
H2A	3.12
H2C	2.25
H2D	4.11

Variant	protein stability index
H2V	2.41
H2P	1.76
H2G	2.96
H2F	2.4
H2L	4.38
H2N	2.59
H2W	3.14
H2Y	2.19
H2E	2.74
H2M	3.24
H2K	3.34
H2T	2.23
H2Q	3.14
H2I	3.4
T1W	2.72
T1C	3.51
T1A	3.53
T1V	3.19
T1F	3.59
T1R	1.94
T1G	2.25
T1S	3.3

Variant	protein stability index
T1M	1.92
T1Y	2.79
T1I	2.73
T1N	2.86
T1E	2.81
T1D	2.63
T1P	3.09
T1Q	1.32
T1K	2.39
T1L	1.56
E5A	2
E5C	2.31
E5F	2.12
E5I	3.67
E5T	3.59
E5N	3.01
E5V	3.53
E5K	2.23
E5Q	2.97
E5W	2.85
E5G	2.7
E5H	2.42

Variant	protein stability index
E5M	3.25
E5R	3.65
E5Y	2.01
E5S	1.57
E5L	2.78
Q6R	2.56
Q6L	3.47
Q6W	2.41
Q6G	3.09
Q6M	3.56
Q6S	2.96
Q6V	3.24
Q6H	1.8
Q6C	2.11
Q6Y	4.9
Q6N	2.52
Q6E	2.46
Q6P	4
Q6I	3.01
Q6F	3.53
Q6K	3.65
Q6A	2.33

Variant	protein stability index
Q6D	1.55
Q6T	3.03
K4Q	2.59
K4E	1.58
K4D	2.45
K4F	4.57
K4M	2.91
K4Y	2.51
K4P	2.23
K4T	1.83
K4C	3.41
K4L	4.05
K4S	2.19
K4H	2
K4A	2.93
K4R	1.59
K4W	2.88
K4I	3.38
K4N	2.23
K4G	3.12
